Laboratory results reported in US20240101675A1 (BIOLOJIC DESIGN, published 2024).
Residue numbers refer to the chain shown, from its start. Each block holds one binder with its values, some of them ahead of it.

Tests used:
[1] = molecular target: PD-1 on engineered Jurkat effector cells (PD-1/PD-L1 Blockade Bioassay) (UniProt Q15116 25-288, limits assumed); test: cell-based or functional assay
[2] = molecular target: T1, recombinant human GITR tagged with histidine tag (hGITR-His) (human, UniProt Q9Y5U5 26-161, limits assumed); test: direct ELISA, antibody coated, hGITR-His titrated 0 to 865 nM
T1 construct: bought (Reprokine); not shown: histidine tag
T1 sequence (looked up): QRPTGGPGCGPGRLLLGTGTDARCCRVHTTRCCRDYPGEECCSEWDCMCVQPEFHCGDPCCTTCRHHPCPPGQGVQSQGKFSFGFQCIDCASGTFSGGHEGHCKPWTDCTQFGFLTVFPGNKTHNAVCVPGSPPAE

[3] = molecular target: T1, recombinant human GITR tagged with …; test: direct ELISA: antibody coated on the plate, hGITR-His titrated, anti-His-HRP
[4] = molecular target: T2, recombinant human PD-1 tagged with histidine tag (hPD-1-His) (human, UniProt Q15116 25-167, limits assumed); test: direct ELISA: antibody coated on the plate, hPD-1-His titrated, anti-His-HRP
T2 construct: bought (Reprokine); not shown: histidine tag

[5] = molecular target: T1, recombinant human GITR tagged with …; test: yeast surface display scFv, flow cytometry
[6] = molecular target: T2, recombinant human PD-1 tagged with …; test: yeast surface display scFv, flow cytometry, 250 nM hPD-1-His
[7] = molecular target: T3, recombinant human IL-13 (human, UniProt P35225 35-146); test: cell-based or functional assay
T3 sequence (P35225 35-146 limits assumed): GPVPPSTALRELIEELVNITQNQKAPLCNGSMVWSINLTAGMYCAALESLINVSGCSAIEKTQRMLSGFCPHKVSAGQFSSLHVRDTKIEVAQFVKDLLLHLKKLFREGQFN

[8] = molecular target: T4, hTSLP-His (ACRO biosystems cat: TSP-H52Hb) (human, UniProt Q969D9 29-159, limits assumed); test: cell-based or functional assay
[9] = molecular target: T5, human TSLP (human, UniProt Q969D9 29-159); test: ELISA, ligand coated, IgG titrated 1 to 1000 nM
T5 construct: also called hTSLP; h-TSLP

[10] = molecular target: T6, recombinant cynomolgus monkey IL-13 (cynomolgus monkey, UniProt Q0PW92 21-132); test: ELISA, ligand coated, IgG titrated 1 to 1000 nM
T6 construct: also called rc-IL-13; cIL-13
T6 sequence (Q0PW92 entry or part of it): as the sequence (P35225 35-146 limits assumed) above, with G1S, R10K, M42V, S67N, H83R, L100V counted along it

[11] = molecular target: T7, cynomolgus monkey TSLP (cynomolgus monkey, UniProt A0A7N9CAT7 29-159); test: ELISA, ligand coated, IgG titrated 1 to 1000 nM
T7 construct: also called cTSLP; cyno-TSLP
T7 sequence (A0A7N9CAT7 entry or part of it): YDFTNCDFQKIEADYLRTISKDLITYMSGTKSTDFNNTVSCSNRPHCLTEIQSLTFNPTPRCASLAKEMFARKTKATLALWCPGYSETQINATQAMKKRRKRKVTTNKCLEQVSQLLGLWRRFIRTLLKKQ

[12] = molecular target: T3, recombinant human IL-13; test: SPR (BIAcore T200), IgG captured, hIL-13 as analyte 20 to 0.6 nM
[13] = molecular target: T4, hTSLP-His (ACRO biosystems cat: …); test: competition ELISA: 3 nM hTSLP-His pre-mixed with IgG, plate coated with TSLP-R-Fc
[14] = molecular target: T8, IL-4 (Homo sapiens (Human), UniProt P05112 25-153); test: specificity ELISA: plate coated with 250 ng ligand, 100 nM IgG, anti-human Fc-HRP
T8 sequence: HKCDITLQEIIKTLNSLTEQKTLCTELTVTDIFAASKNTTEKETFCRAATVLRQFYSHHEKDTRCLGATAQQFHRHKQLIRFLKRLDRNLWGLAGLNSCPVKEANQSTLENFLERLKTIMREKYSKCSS

[15] = molecular target: T9, IL-2 (specificity ELISA of Example 6) (Homo sapiens (Human), UniProt P60568 21-153); test: as above
T9 sequence (P60568 21-153 limits assumed): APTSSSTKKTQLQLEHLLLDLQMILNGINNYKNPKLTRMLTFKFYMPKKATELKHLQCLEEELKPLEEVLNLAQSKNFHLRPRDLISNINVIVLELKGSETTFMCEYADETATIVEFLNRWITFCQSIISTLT

[16] = molecular target: BSA (UniProt P02769 25-607); test: as above
Sequence of BSA (P02769 25-607 limits assumed): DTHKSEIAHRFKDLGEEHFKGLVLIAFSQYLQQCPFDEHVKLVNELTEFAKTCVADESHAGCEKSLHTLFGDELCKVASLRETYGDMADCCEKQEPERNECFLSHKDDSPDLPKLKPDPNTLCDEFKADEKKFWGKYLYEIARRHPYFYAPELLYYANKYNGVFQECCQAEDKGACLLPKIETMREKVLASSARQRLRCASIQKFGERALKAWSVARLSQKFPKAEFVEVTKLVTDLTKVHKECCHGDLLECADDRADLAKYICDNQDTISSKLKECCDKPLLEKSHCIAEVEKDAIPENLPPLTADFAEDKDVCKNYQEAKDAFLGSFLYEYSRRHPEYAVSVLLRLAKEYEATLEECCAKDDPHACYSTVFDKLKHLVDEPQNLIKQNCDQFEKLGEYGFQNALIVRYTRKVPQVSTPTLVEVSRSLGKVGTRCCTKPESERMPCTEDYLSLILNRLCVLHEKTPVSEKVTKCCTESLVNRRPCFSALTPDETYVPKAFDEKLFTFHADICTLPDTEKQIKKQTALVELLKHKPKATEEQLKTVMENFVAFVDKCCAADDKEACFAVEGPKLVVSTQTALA

[17] = molecular target: T9, IL-2 (specificity ELISA of Example 6); test: specificity ELISA, ligand coated
[18] = molecular target: T3, recombinant human IL-13; test: cell-based or functional assay; remark: listed apart in the source
[19] = molecular target: T2, recombinant human PD-1 tagged with …; test: yeast surface display scFv, flow cytometry, 30 nM hPD-1-His
[20] = molecular target: T10, recombinant human OX40 tagged with histidine tag (hOX40-His) (human, UniProt P43489 29-216); test: yeast surface display scFv, flow cytometry, 90 nM hOX40-His
T10 construct: bought (Reprokine); also called hOX-His; not shown: histidine tag
T10 sequence (looked up): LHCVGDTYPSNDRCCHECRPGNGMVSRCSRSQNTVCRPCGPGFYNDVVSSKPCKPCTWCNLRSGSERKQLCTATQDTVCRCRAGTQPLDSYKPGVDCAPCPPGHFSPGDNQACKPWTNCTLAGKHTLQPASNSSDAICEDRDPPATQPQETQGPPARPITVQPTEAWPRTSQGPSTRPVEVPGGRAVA

[21] = molecular target: T4, hTSLP-His (ACRO biosystems cat: …); test: competition ELISA: hTSLP-His pre-mixed with soluble TSLP-R as competitor, plate coated with TSLP-R-Fc
[22] = molecular target: T4, hTSLP-His (ACRO biosystems cat: …); test: blocking ELISA: competitor mixed with 3 nM hTSLP-His, then on a plate coated with TSLP-R-Fc; bound hTSLP-His by anti-His-HRP

IC50, inhibition of IL-13 signaling cascade in HEK-Blue IL-4/IL-13 cells [7]: 1.3 nM
IC50, inhibition of TSLP dependent pSTAT5 activation in MUTZ5 cells [8]: 13 pM
EC50 [9]: 2.5 nM
EC50 [10]: 7.1 nM
EC50 [11]: 8.2 nM
Kd [12]: 3.65 nM
koff [12]: 0.0157 s⁻¹
kon [12]: 4.31e+06 M⁻¹ s⁻¹
IC50 [13]: 0.41 nM
B3: BDG33.023 (antibody, human IgG1, V domains shown)
VH: QMQLVESGGGVVQPGRSLRLSCAASGFAFRTYGMHWVRQAPGKGLEWVAVIWYDGSNTHYADSVKGRFTITRDNSKNTLNLQMNSLRAEDTAVYYCARAPQWYLSAEAFDLWGQGTMVTVSS
VL: SYVLTQPPSVSVAPGQTARITCGGNLIGSKLVHWYQQKPGQAPVLVVYDDSDRPSRIPERFSGSNSGNTATLTISRVEAGDEADYYCQVWDHSSDHVVFGGGTKLTVL
notes: IgG (human IgG1 format, symmetrical IgG); also called BGD33.023; BGD33.0023
binding result [14]: no binding (tested: 100 nM IgG (not on the sheet))
binding result [15]: no binding (tested: 100 nM IgG (not on the sheet))
binding result [16]: no binding (tested: 100 nM IgG (not on the sheet))

binding result [19]: binds
binding result [20]: binds
B5: 3212ACOXC81 (OX40 library) (scFv, V domains shown)
VH: QVQLVESGGGVVQPGRSLRLDCKASGIDFSNSGMHWVRQAPGKGLEWVAVIWYDGSTRYYADSVKGRFTISRDNSKNTLFLQMNSLRAEDTAVYYCATNDDYWGQGTLVTVSS
VL: EIVLTQSPATLSLSPGERATLSCRASQSVIHYLAWYQQKPGQAPRLLIYDASNRATGIPARFSGSGSGTDFTLTISSLEPEDFAVYYCQQYDNWPLTFGQGTKVEIK
notes: not shown: linker

The remaining lines, values behind:

B1: BDG32.005 (antibody, human IgG1, V domains shown)
VH: B5 VH with D28T, T57L
VL: B5 VL with I30S, H31D, Y32N, S52D, Q89M, Y91S, D92S, W94L, P95A, L96R
notes: human IgG1 format
IC50, cellular reporter PD1/PDL1 blocking assay (PD-1 dependent luminescence) [1]: ~614 nM
EC50 [2]: ~4 nM
EC50 (read off the curve) [3]: ~4 nM
EC50 (read off the curve) [4]: ~3 nM

B2: G1 (GITR Library) (scFv, V domains shown)
VH: B5 VH with V2A, P14A, D28T, S32R, T57L
VL: B5 VL with I30S, H31D, Y32N, S52D, Y91S, D92S, W94L, L96R
notes: not shown: linker
binding result [5]: binds
binding result [6]: binds

B4: BDG33.025 (antibody, human IgG1, V domains shown)
VH: B3 VH with A28T, V50D, T58K, S105V, A108P
VL: B3 VL with R56L, H92S, H96G
notes: IgG (human IgG1 format, symmetrical IgG); also called BGD33.025; BDG33.0025
IC50, inhibition of IL-13 signaling cascade in HEK-Blue IL-4/IL-13 cells [7]: 25 nM
binding result [17]: no binding (tested: 100 nM IgG)
IC50 (read off the curve); HEK-Blue IL-4/IL-13 STAT6-SEAP reporter with 0.4 nM rh-IL-13, OD 620 [18]: ~20 nM
EC50 [9]: 12.8 nM
EC50 [10]: 1.5 nM
EC50 [11]: 148 nM
Kd [12]: 0.903 nM
koff [12]: 0.0036 s⁻¹
kon [12]: 4.07e+06 M⁻¹ s⁻¹
binding result [16]: no binding (tested: 100 nM IgG (not on the sheet))

B6: TSLP-R-Fc tag (ACRO biosystems TSR-H525a) (Fc fusion, UniProt Q9HC73 23-231, looked up)
chain: QGGAAEGVQIQIIYFNLETVQVTWNASKYSRTNLTFHYRFNGDEAYDQCTNYLLQEGHTSGCLLDAEQRDDILYFSIRNGTHPVFTASRWMVYYLKPSSPKHVRFSWHQDAVTVTCSDLSYGDLLYEVQYRSPFDTEWQSKQENTCNVTIEGLDAEKCYSFWVRVKAMEDVYGPDTYPSDWSEVTCWQRGEIRDACAETPTPPKPKLSK
notes: bought; also called TSLP receptor; not shown: Fc tag
IC50 [21]: 3 nM
IC50 (read off the curve) [22]: ~3 nM
